Experiments:
[1] = biological target: Histone H2A-H2B dimer (H2B T112C labeled with Cy5.5) (X. laevis) (UniProt P06897)
[2] = biological target: Histone H2A-H2B dimer (H2B T112C labeled with Cy5.5) (X. laevis) (UniProt P06897); remark: listed apart in the source

6xHis-Yeast nucleosome assembly protein 1 (Nap1) (from UniProt P25293 1-417) (natural protein)
rate constant of H2A-H2B exchange between CpG methylated nucleosomes (three-color smFRET), in the presence of Nap1 [1]: 626 M⁻¹ s⁻¹
rate constant of H2A-H2B exchange between nucleosomes containing H3KS56ac (three-color smFRET), in the presence of Nap1 [2]: 1380 M⁻¹ s⁻¹
